From the DeepSol protein solubility set

Experiment: soluble on expression in E. coli; label from the status in PepcDB or PDB records

Row | Sequence | soluble on expression in E. coli
1 | MSNQLSPKPPVNPIVMGKIGSAYGIRGWLRVFSSTEDADSIFDYQPWFIQSKSGWQLVEIEGWKYHNQDLIIKVKGADDRDAANLLTNCEIVVDSSQLPDLGVGDYYWKDLIGCQVVTVTGYELGKIIDMMETGSNDVMVIKANLKDAFGVKERLVPFLTEQVVKRVDLSAQTIEVDWDPGFLEHHHHHH | soluble
2 | MGSDKIHHHHHHMDRIIYTAGSGASQAMQQQSVVNHNLSNVSTPGFRAELDAMRAVPVQGDGRLATRTSVAATTSGTDFSPGYMNATGRRLDVAMQGDAFLAIQDPQGGEAYTRRGDLQVDADGMLTVKGEPVMGEQGPIVVPPDAEFSIGADGSISVLEAGANPDEIAPVGRLKLVTPDLQALTRGDDGWFRLPPGDDAEIAAPQPLDEDARLQSGVLEGSNVSATDAMVAMIDGARRYDMQMKVIESADQNAQRANSLLSVQA | not soluble
3 | MGSDKIHHHHHHMTFDANDVVRRLGARLKMRHLMLLLQIQQHGSLTRVAEHMASSQPAVTNALSELESMFGTPLFERTSRGMRPTALGSVVLERARAMLKDLDHLAREMEAVAAGHAAHLHIGVIPFISGQMLSAALKRLQSRMERRLTVTIHEGTSDQLLLQLKDHSVDLVIGRASSAIDLGQVSFEVLYQQQPRMIASRRLAAKLARTKLDWQKLHALDWILGAPHTPMREQVTDLFLSAGIAPPVPIVESYSSKLIGEMIASSDDAVSIVPADIAEEMVRIAGVAIVPYSLVWTLPPIALFTRAGESHAPTRDLLVQALREICRETYVEVPR | not soluble
4 | MFSLSKTLAALLLCSAASLAQAAETAICYNCPPEWADWGTQLKAIADSTSVQVPLDNKNSGQALAQIVAEQAAPVADVVYYGVTFGLQAQKAGVVDTYKPKHWDDIPAGLKDPQGHWFAIHSGTLGIMVNVDALGGLPVPQSWADLLKPEYKGMVGYLDPSSAFVGYVSAVAINQAMGGSLDNFGPAIDYFQKLAKNSPIVPKQTAYARALSGELPILVDYDFNAYRARYKDKANVAFVIPKEGTIGVPYVMSMVAKAPHRANAEKVLDFVLSDAGQALWAKAYLRPVRSKMPADVAAQFLPDSDYARAGVVDYQRMAAVQEAFAARYLREVK | not soluble
5 | MAHHHHHHMSEINIIKAFGILLCRLKKYNPVTTGDINKFEFLFLKASYADKHWTPPKGLHENNESGLETAVRETLEETGINKDKYKLLNYQKTLKYNVKDKPKETTYYLAMLLNNEENVILSDEHTDYKWIGSHESDTYNLPESLADLLKEAEEFLNKEQL | soluble
6 | MLVCDFKTTCLNWVNVDDVVMGGVSNSAMQLTQDGTAVFAGNLSLENSGGFASVRTVLERRNYADFAGFRIRVKGDGKRYSFRARNDERFDGVVYKFDFETVPDEWMEIDLSFAGFIPSFRGRTLVDVPPLDSSNIVQIGLLVSNKQAGAFWLEIAWIEAYRADTVASSFRLEHHHHHH | soluble
7 | MEREQALWIVKQQLTEQRYEHTLGVVETAVKLAKQYGADAKKAELAAIFHDYAKFRPVEEMKQIILAQNMPNDLLAYNSELWHAPVGAYLVQTEVGIDDPEVLDAIRYHTSGRAGMTVLEKIIYLADYIEPGRRFPGVDDVRRLAEEDLNRALLQAVKNTIAFLLEKRQLIYPDTIHAYNSLMREVKGEAKR | not soluble
8 | MSLRDQFQLAIRVADLLQHITQMKRGQGYGFKEEYEALPEGQTASWDTAKEDENRNKNRYGNIISYDHSRVRLLVLDGDPHSDYINANYIDGYHRPRHYIATQGPMQETVKDFWRMIWQENSASIVMVTNLVEVGRVKCVRYWPDDTEVYGDIKVTLIETEPLAEYVIRTFTVQKKGYHEIRELRLFHFTSWPDHGVPCYATGLLGFVRQVKFLNPPEAGPIVVHCSAGAGRTGCFIAIDTMLDMAENERVVDIFNCVRELRAQRVNLVQTEEQYVFVHDAILEACLCGNTAIPVCEFRSLYYNISRLDPQTNSSQIKDEFQTLNIVTPRVRPEDCSIGLLPRNHDKNRSMDVLPLDRCLPFLISVDGESSNYINAALMDSHKQPAAFVVTQHPLPNTVADFWRLVFDYNCSSVVMLNEMDTAQFCMQYWPEKTSGCYGPIQVEFVSADIDEDIIHRIFRICNMARPQDGYRIVQHLQYIGWPAYRDTPPSKRSLLKVVRRLEKWQEQYDGREGRTVVHCLNGGGRSGTFCAICSVCEMIQQQNIIDVFHIVKTLRNNKSNMVETLEQYKFVYEVALEYLSSFEGHHHHHH | soluble
9 | MSLAKGGKRMRRTLAGIAAVLGLALGQQQVTLFWSGAITGPTSDAGAPYGAAVEDYCKWANERKLVPGVVFNCVVRDDQYNNANTQRFFEEAVDRFKIPVFLSYATGANLQLKPLIQELRIPTIPASMHIELIDPPNNDYIFLPTTSYSEQVVALLEYIAREKKGAKVALVVHPSPFGRAPVEDARKAARELGLQIVDVQEVGSGNLDNTALLKRFEQAGVEYVVHQNVAGPVANILKDAKRLGLKMRHLGAHYTGGPDLIALAGDAAEGFLWATSFYMAHEDTPGIRLQKEIGRKYGRPENFIESVNYTNGMLVASIAVEAIRRAQERFKRITNETVYQAIVGMNGPNAFKPGFAVSTKQGVEIDFTKSEHTGAEGLRILEAKGGRFVPVTEPFTSALFRKVHYGEGHHHHHH | soluble
10 | MGRKSQRKNATMFDSDDDTSSVSSSSTMPSERLLNPGMDEVTVLKDALLDQSLDALYEKREQALATIVDAFNSDLQYEFVEKKFATLLHQCLHCTKKGSTKETSLATHVIGLLALTVGLGDHAQEVLEESVTPLSQALKSGREILKITSILECLAVITFVGGNDPEQTEKSMQIIWQMIHPKLGSNVVATKPSPAVISAVVSSWAFLLTTVDRWTLGPKIFQETVTYLSTLLEKDDRSVRIAAGEALAVIYELGTLEKFAAEVKGSANGSVKEGGVSQEALMHMHGLKAKVTKQVRELSVEAGGKGSAKKDLNTQRNLFKDLVEFLEDGYAPETSTKVGGDYLQTSTWYQMIQLNYLKHFLGGGFIKHMQENEFLHDVFSFTPKKIGGGKLSNDEKRLFKSPNSALNKARTQFLAKQRMLAKNMNVGHYAATAMEEE | soluble
11 | MGRNKEFDTALVLHRAIEVFGEYGYEGTSLQDLLSHLGIARQSLYDTYGTKRDLFLSAVKSYLEGKNAAVMERLEAPGSVKEAIRDIFQEGVNALRDPERAKACYIINSAIEQIPHDPELARYFERQSKQLEDAFYHGLLRAKDQGELNGEDTDISALARYLNQSRLSLTFIAKVTADMDRLQDHVDVSLSVLD | soluble
12 | MGSDKIHHHHHHMMELINNRGMRDWMIFIKVAEVGNLSRAARELDISISAVSKSLSRLENSIEVTLLRRDSHHLELTGAGQTAYASMKRITSSFQSLLDELRNPDKIIRGSIKFSAPAIVCEFLANKWIWEFTASYPDTKIYLDSRERSDFFSKSLEFDELVFKSGIIESEDLVYRKISPLKLVLCASPKYIRKYGRISHPGDLENHIIVGLHNHGLSGPLTLFRQDESYTISGAVNVHLSSNNLLSVLNLVLEGKGINLMTPAWLATKYLKNNELEIILPEWRVPDLPIYLVWRHRQYYSPLFQRFLSFIEDKWNNRPQIDFLNDD | not soluble
13 | MALAMNRSITAITVTHNSAHTVRGALARLPPGVEIVCVDNASTDDLSTALSDLAVHRIDNPVNLGFGRACNIGAAAATGEYLLFINPDVRLGTDAVDALLQAAERYPNCGVFVPRTNTVDGRLWFREESEIDRLSGVSLPTRIRQVWGDCCVRFVNGGVFMIKRTLFLDTGGFDEDIFLYFEDDDLSYRLLQRDEPMILVSGAHAVHDIGTSVAQSTRSRIFRYRSKMRSEIHLRKKYGIAYSPFVDILRYSTKIGFYCLTLNRNRLINSLGRLIGIFDSILDRSRANRNGGYVALEHHHHHH | not soluble
14 | MGSDKIHHHHHHMGDVTVKDYKGGTIEDPEELKSNQTILTIDQAKYFNFKVDDVDKAQSNILLVDKGMGRASYAVQDVIDKFIAALVKDAKIKIGSTSKPIEITVANAYDTLVDLGVELDNKNVPRVGRFAILPPFYLGLLSKDPRFTKDFKILENGVVEGATVSGFKLMMSNNVPFSANNYSIMAGTDMAISYAGQVTEIEAYRPEKSFSDAMKGLYVFGAKVVQPDCLACLTVKQKVAEV | not soluble
